# Measured values: patent US7268215B2, “Photoprotein derived from okinawan squid and gene encoding the photoprotein” (Nagoya University, priority 2000, dated 2007)
# Legend:
# [1] = luminescent ability of purified photoprotein and its trypsin fragments; assay type: biochemical, Symplectoteuthis oualaniensis; details: purified protein before and after trypsin digestion
# Source text: From photogenic organ of okinawan squid, collected at the sea area of Okinawa Prefecture Japan, the photoprotein having a molecular mass of 60 kDa was separated and purified as a luminescent ability as an index. This photoprotein was soluble in a solution containing KCl at a concentration of more than 0.6M. At first, homogenate of the photogenic organ containing symplectin was washed by KCl solution (pH 6.0) of 0.4M. Then, it was extracted with a KCl solution of 0.6M, and a portion thereof was added to a buffer having pH of 8.0 to confirm the luminescent ability. Because of high salt concentration, means of chromatography applicable for purification of the extract was limited. When the purified protein was hydrolyzed by trypsin, two products having molecular masses of 40 kDa and 15 kDa were produced from the original protein of 60 kDa (FIG. 2). […] Fragments of 40 kDa and 15 kDa were recognized after trypsin digestion, particularly in lane 3 corresponding to the purified protein. […] However, the amino acid sequence of the 15 kDa protein was the same as the N-terminal amino acid sequence of the 60 kDa protein. […] Incidentally, the active region responsible for the photogenic function would exist at the C-terminal portion corresponding to the 40 kDa protein.
# [2] = assay type: physicochemical, Symplectoteuthis oualaniensis
# Source text: The photoprotein of okinawan squid has a low solubility and there is no conventional method for research of the protein. When a surfactant to solubilize the membrane protein is used, luminescent activity of the okinawan squid photoprotein would be disrupted. By addition of KCl (a caotropic salt) to a buffer, the protein can be solubilized without disrupting its activity. The effects of various kinds of salts on the objective protein are examined in the terms of extraction efficiency and luminescent activity. […] Enzymatic characteristic of okinawan squid was investigated. […] (Isobe M. et al., Pure and Appl. Chem., (1998) Vol.70, 2085-2092). From photogenic organ of okinawan squid, collected at the sea area of Okinawa Prefecture Japan, the photoprotein having a molecular mass of 60 kDa was separated and purified as a luminescent ability as an index. This photoprotein was soluble in a solution containing KCl at a concentration of more than 0.6M. At first, homogenate of the photogenic organ containing symplectin was washed by KCl solution (pH 6.0) of 0.4M. Then, it was extracted with a KCl solution of 0.6M, and a portion thereof was added to a buffer having pH of 8.0 to confirm the luminescent ability. Because of high salt concentration, means of chromatography applicable for purification of the extract was limited.
# [3] = enzymatic characteristics and cation trigger of luminescence; assay type: biochemical, Symplectoteuthis oualaniensis; details: different from aequorin
# Source text: The photoprotein of okinawan squid has a low solubility and there is no conventional method for research of the protein. When a surfactant to solubilize the membrane protein is used, luminescent activity of the okinawan squid photoprotein would be disrupted. By addition of KCl (a caotropic salt) to a buffer, the protein can be solubilized without disrupting its activity. The effects of various kinds of salts on the objective protein are examined in the terms of extraction efficiency and luminescent activity. […] Enzymatic characteristic of okinawan squid was investigated. […] (Isobe M. et al., Pure and Appl. Chem., (1998) Vol.70, 2085-2092).
# [4] = bioluminescence assay of recombinant symplectin protein with dehydrocoeleneterazine; assay type: biochemical, Symplectoteuthis oualaniensis; details: complex with dehydrocoeleneterazine, 37° C. for 30 min, alkaline buffer (pH9.8) added
# Protocol: The PCR products were separated on an agarose gel succeeded by digestion with EcoRI and SalI. Then it was ligated to EcoRI and SalI site of pET-32a(+) to construct a vector. The vector was designated pET-60 and it was utilized for expression of symplectin protein. The E. coli strain BL21(DE3)pLysS, transformed by pET-60, was grown in Luria broth (LB) at 37° C. Expression of the protein was induced by addition of isopropyl-1-thio-b-D-galactopyranoside (IPTG). The cells were harvested by centrifugation and lysed by sonication in a buffer. The homogenate was centrifuged, and the supernatant was subjected to affinity chromatography using His-Bind Resin. The fusion protein with thioredoxin was purified by a step-wise manner elution with varied imidazole concentrations. The recombinant symplectin protein was obtained as a fusion protein with thioredoxin, according to the manipulation described above. The recombinant symplectin protein was subjected to bioluminescence assay. The recombinant symplectin protein was suspended in a buffer, mixed with chromophore dehydrocoeleneterazine, then protein-chromophore complex was formed by incubation at 37° C. for 30 min. The alkaline buffer (pH9.8) was added to increase pH of the protein-chromophore complex solution and the bioluminescence reaction was initiated. […]
Molecule,ability to emit luminescence [1],KCl concentration of solution in which the photoprotein is soluble [2],solubility into an aqueous solution [2],triggering of luminescence by a divalent cation [3],ability to emit luminescence ([1]; listed as 40 kDa fragment),luminescence monitored by lumiphotometer [4]
"symplectin: photoprotein derived from okinawan squid (Symplectoteuthis oualaniensis), 501 amino acids, SEQ ID NO:1 (protein, listed as Symplectoteuthis oualaniensis) YVRPVSSWKVAVFEHQVIPPKTDMETREEALDALKLNSDVYHEAVLESRSKGVKMIVFPEYGLYDINTLTRTRMDLMAEKVPHPKHGHRNPCDEPEYQTQSSEMLRTFSCMAKENDMYMVVNMAGREPCRRATEPECPGDKQLLYNTNVAFNNEGDVVARYYKTHLFWEEGWFNSSKNYEMALWDTPIGKFGTFMCFDFQAVQLIEQYNVRHIAYPASWVNLPPIYQSIQSHSAFARFAKINLLAASVHRLETSTYGSGIYSPNGAEIFYFRPDIPKSKLLVAEILPIHVKKPEQTVVNKDNPVFPSEDDDVQDLFDRGDFAFLKYKRMTTRAGTVEVCQKSFCCKARYAVKDRFKEVYAVGVYDGLLSAGANNLYFQICTVIQCPHKKCGLKISKVRTHFKYLNLRADGWLDRYVFPSYTVMYNNYIALDPFVWNYTVAGGIETKPGTSTPLHSANLVARIYAKDSSKHVHQPHPIDEGVIKMAVKYMLYVMAAYVYAAS",exhibited luminescence,more than 0.6 M,low,not triggered by a divalent cation,,
"40 kDa protein: 40 kDa trypsin fragment of symplectin, C-terminal portion, SEQ ID NO:2 (protein, listed as Symplectoteuthis oualaniensis) ATEPECPGDKQLLYNTNVAFNNEGDVVARYYKTHLFWEEGWFNSSKNYEMALWDTPIGKFGTFMCFDFQAVQLIEQYNVRHIAYPASWVNLPPIYQSIQSHSAFARFAKINLLAASVHRLETSTYGSGIYSPNGAEIFYFRPDIPKSKLLVAEILPIHVKKPEQTVVNFDNPVFPSEDDDVQDLFDRGDFAFLKYKRMTTRAGTVEVCQKSFCCKARYAVKDRFKEVYAVGVYDGLLSAGANNLYFQICTVIQCPHKKCGLKISKVRTHFKYLNLRADGWLDRYVFPSYTVMYNNYIALDPFVWNYTVAGGIETKPGTSTPLHSANLVARIYAKDSSKHVHQPHPIDEGVIKMAVKYMLYVMAAYVYAAS",exhibited luminescence,,,,exhibited photogenic activity,
"recombinant symplectin protein: recombinant symplectin expressed in E. coli from pET-60 as a fusion protein with thioredoxin (protein, left off: large carriers; things letters cannot carry, recombinant symplectin expressed in E. coli from pET-60 as a fusion protein with thioredoxin) FEHQVIPPKTDMETREEALDALKLNSDVYHEAVLESRSKGVKMIVFPEYGLYDINTLTRTRMDLMAEKVPHPKHGHRNPCDEPEYQTQSSEMLRTFSCMAKENDMYMVVNMAGREPCRRATEPECPGDKQLLYNTNVAFNNEGDVVARYYKTHLFWEEGWFNSSKNYEMALWDTPIGKFGTFMCFDFQAVQLIEQYNVRHIAYPASWVNLPPIYQSIQSHSAFARFAKINLLAASVHRLETSTYGSGIYSPNGAEIFYFRPDIPKSKLLVAEILPIHVKKPEQTVVNKDNPVFPSEDDDVQDLFDRGDFAFLKYKRMTTRAGTVEVCQKSFCCKARYAVKDRFKEVYAVGVYDGLLSAGANNLYFQICTVIQCPHKKCGLKISKVRTHFKYLNLRADGWLDRYVFPSYTVMYNNYIALDPFVWNYTVAGGIETKPGTSTPLHSANLVARIYAKDSSKHVHQPHPIDEGVIKMAVKYMLYVMAAYVYAAS",,,,,,obvious luminescence was detected
